Target: human CCR5 (human) (UniProt P51681)
Experiment: cell-based or functional assay

human CCR5 (human), sequence (P51681 whole entry): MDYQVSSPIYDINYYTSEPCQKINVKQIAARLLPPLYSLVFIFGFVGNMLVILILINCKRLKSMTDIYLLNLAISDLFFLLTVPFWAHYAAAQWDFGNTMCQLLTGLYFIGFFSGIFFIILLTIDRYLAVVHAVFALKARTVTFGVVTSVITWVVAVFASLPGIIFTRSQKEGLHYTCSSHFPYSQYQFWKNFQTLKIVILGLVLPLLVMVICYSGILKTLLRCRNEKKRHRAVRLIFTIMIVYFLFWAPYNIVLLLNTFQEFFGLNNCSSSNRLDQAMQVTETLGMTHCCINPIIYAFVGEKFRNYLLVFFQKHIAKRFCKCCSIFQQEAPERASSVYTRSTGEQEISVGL

Pharmingen 2D7 (CD 195; Cat. Nr. 555990) (antibody)
IC50, PhenoSenseHIV assay (ViroLogic) using JRCSF strain: 1.4 µg/ml
IC50, inhibition of HIV growth in human PBMC, JRCSF (p24 ELISA): 0.271 µg/mL
IC50, inhibition of HIV growth in human PBMC, Nl-Bal (p24 ELISA): 0.076 µg/mL
